In data set [1] the target is full-length wild-type gephyrin (Geph^WT) (human) (UniProt Q9NQX3). Nature of the data set: SEC; analytical SEC (Superdex 6 increase or Superose 6 increase 10/300 GL) in grid buffer (25 mM Tris pH 7.5, 250 mM NaCl, 25 mM Arg/Glu, 5 mM β-mercaptoethanol, 1.5% sucrose); Geph^WT with a 3-fold excess of GlyR-loop; no filaments seen in SEC.
Data set [2] deals with the molecule itself. The data set is described as follows: cell-based or functional assay.

The molecule “full-length wild-type gephyrin (Geph^WT) (from UniProt Q9NQX3 1-736) (natural protein)” had a stoichiometry N in data set [1] of 3.

B1: isolated gephyrin E-domain, wild type (GephE^WT, residues 327–736) (domain or fragment, human, UniProt Q9NQX3 327-736, looked up)
chain: DKAFITVLEMTPVLGTEIINYRDGMGRVLAQDVYAKDNLPPFPASVKDGYAVRAADGPGDRFIIGESQAGEQPTQTVMPGQVMRVTTGAPIPCGADAVVQVEDTELIRESDDGTEELEVRILVQARPGQDIRPIGHDIKRGECVLAKGTHMGPSEIGLLATVGVTEVEVNKFPVVAVMSTGNELLNPEDDLLPGKIRDSNRSTLLATIQEHGYPTINLGIVGDNPDDLLNALNEGISRADVIITSGGVSMGEKDYLKQVLDIDLHAQIHFGRVFMKPGLPTTFATLDIDGVRKIIFALPGNPVSAVVTCNLFVVPALRKMQGILDPRPTIIKARLSCDVKLDPRPEYHRCILTWHHQEPLPWAQSTGNQMSSRLMSMRSANGLLMLPPKTEQYVELHKGEVVDVMVIGRL
For B1, the “sedimentation assay of in vitro phase separation (LLPS) with GlyR-LD: GephE in the pellet fraction against the sample without GlyR-LD” value in data set [2] was about 10 fold.

The stoichiometry N is a count of units in the complex or per binding partner.

(Values after publication PMC12441120, “Gephyrin filaments represent the molecular basis of inhibitory postsynaptic densities” (Nature Communications, 2025).)
